Measurements published in article PMC9687583.

Biological target: T1, Human C-C motif ligand 16 (CCL16) (human), O15467
T1 chain: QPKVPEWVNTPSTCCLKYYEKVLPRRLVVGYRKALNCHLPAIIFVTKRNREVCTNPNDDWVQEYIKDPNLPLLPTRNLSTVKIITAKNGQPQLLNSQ
Experiment: SEC; HiLoad 26/60 Superdex 75 pg; 50 mM sodium dihydrogen phosphate, 500 mM sodium chloride, 10% (v/v) glycerol, pH 8.0; apparent mass after calibration with standard proteins in the same buffer
Details: remark: other sources report otherwise

B1: Human C-C motif ligand 16 (CCL16), O15467 24-120 (natural protein)
chain: QPKVPEWVNTPSTCCLKYYEKVLPRRLVVGYRKALNCHLPAIIFVTKRNREVCTNPNDDWVQEYIKDPNLPLLPTRNLSTVKIITAKNGQPQLLNSQ
modifications: here or on the partner: two intramolecular disulphide bonds (confirmed by CE-MS and electron density); two intramolecular disulphide bonds (confirmed by CE-MS and electron density)
In the case of B1, the stoichiometry N is reported as 2.
